± gives the standard error. This sample holds only a part of the variants without activity.
B1: glmS ribozyme (parent)
chain: AUAAAAGCGCCAGAACUACAGAAAUGUAGUUGACGAGGAGGAGGUUUAUCGAAUUUUCGGCGGAUGCCUCCAAA

Columns and labels:
Conditions in all cases: with glucosamine-6-phosphate
glucosamine-6-phosphate [1] = variants of: B1; assay: self-cleavage kobs at 160 uM GlcN6P; higher = faster cleavage; RNA array
Summary of the method: (§1)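 Barcoded ribozyme variants were transcribed in situ on sequenced MiSeq chips by E. coli RNA polymerase. At 37 °C, a hybridised Cy3 probe tracked them while glucosamine-6-phosphate (40 μM to 10 mM) in HEPES/KCl/Mg(OAc)2 buffer flowed in and tiles were imaged over ~14 h. Per-tile medians of signals normalised to baseline and to non-cleaving reference variants were fit to one- or two-exponential decays, giving kobs. kcat and KM came from weighted Michaelis–Menten fits across concentrations.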

glucosamine-6-phosphate [2] = variants of: B1; assay: self-cleavage kobs at 640 uM GlcN6P; higher = faster cleavage; RNA array
Summary of the method: as §1

glucosamine-6-phosphate [3] = variants of: B1; assay: self-cleavage kobs at 2500 uM GlcN6P; higher = faster cleavage; RNA array
Summary of the method: as §1

glucosamine-6-phosphate [4] = variants of: B1; assay: self-cleavage kobs at 10000 uM GlcN6P; higher = faster cleavage; RNA array
Summary of the method: as §1

| Variant | self-cleavage kobs at 160 uM GlcN6P (glucosamine-6-phosphate [1]) [s⁻¹] | self-cleavage kobs at 640 uM GlcN6P (glucosamine-6-phosphate [2]) [s⁻¹] | self-cleavage kobs at 2500 uM GlcN6P (glucosamine-6-phosphate [3]) [s⁻¹] | self-cleavage kobs at 10000 uM GlcN6P (glucosamine-6-phosphate [4]) [s⁻¹] |
| --- | --- | --- | --- | --- |
| U57C G60A | < 1e-05 | < 1e-05 | < 1e-05 | – |
| A6G G37C G43A U46C | – | < 1e-05 | – | – |
| A6U A39G A48G | – | < 1e-05 | < 1e-05 | – |
| A6C G44A A64G | – | < 1e-05 | – | – |
| G7C A64U G66U | – | < 1e-05 | – | – |
| A6G A12C U56A | – | 5.6e-05 ± 1.6e-05 | 0.000102 ± 2.1e-05 | – |
| A6U A12G A39G G63C | – | < 1e-05 | < 1e-05 | – |
| G7C G9C G44A | – | < 1e-05 | – | < 1e-05 |
| A6U U55G G59C U69C | – | 0.000135 ± 5.3e-05 | 5.57e-05 ± 2.7e-05 | – |
| A6U C34U G40C G59C | – | < 1e-05 | – | – |
| U49A U56C A64U | < 1e-05 | < 1e-05 | < 1e-05 | – |
| A6U C16U C61U C71U | – | < 1e-05 | < 1e-05 | – |
| C8G C50U A53U U55G | – | < 1e-05 | – | – |
| A6U U45C C71U | – | < 1e-05 | < 1e-05 | – |
| A6U G35A C70U | – | < 1e-05 | – | – |
| U2C U31C | – | 0.000805 ± 0.00025 | – | – |
| C8A A53U C58A G59U | – | < 1e-05 | – | – |
| U57G C58A G63U | < 1e-05 | – | – | – |
| G51U U56C C70G | < 1e-05 | – | – | < 1e-05 |
| C50U C67G | 0.000148 ± 6.3e-05 | 2.88e-05 ± 1.2e-05 | 2.44e-05 ± 1.1e-05 | – |
| C8A C50G C61A U69G | – | 7.27e-05 ± 2.2e-05 | 6.55e-05 ± 2.7e-05 | – |

| Variant | self-cleavage kobs at 160 uM GlcN6P (glucosamine-6-phosphate [1]) [s⁻¹] | self-cleavage kobs at 640 uM GlcN6P (glucosamine-6-phosphate [2]) [s⁻¹] | self-cleavage kobs at 2500 uM GlcN6P (glucosamine-6-phosphate [3]) [s⁻¹] | self-cleavage kobs at 10000 uM GlcN6P (glucosamine-6-phosphate [4]) [s⁻¹] |
| --- | --- | --- | --- | --- |
| A6G C10U U54G | – | < 1e-05 | < 1e-05 | < 1e-05 |
| U49C A53G | < 1e-05 | < 1e-05 | – | < 1e-05 |
| G7A A39U A53C A64C | – | < 1e-05 | – | – |
| U2A G44U | – | 0.000101 ± 1.5e-05 | 0.000228 ± 6.3e-05 | – |
| G7U C11A C50G C70U | – | 0.000451 ± 0.00011 | 0.000157 ± 3.1e-05 | 0.00016 ± 3.1e-05 |
| A6U G29A G44U | – | < 1e-05 | – | – |
| G7A C8U G13U A15C A39C U55G U57A | – | < 1e-05 | – | – |
| U54G C58G C67G | 0.000136 ± 3.4e-05 | 0.000215 ± 7.1e-05 | 8.44e-05 ± 3.2e-05 | – |
| G7A C34U G35U G37A G40A | – | < 1e-05 | < 1e-05 | – |
| A52U U57A C68U | 8.55e-05 ± 2.1e-05 | 0.000196 ± 5.5e-05 | 0.000613 ± 0.00014 | – |
| U54C U55A | 0.00144 ± 0.00036 | 0.00609 ± 0.0028 | 0.00974 ± 0.0036 | – |
| U57G C58G A64G | 6.2e-05 ± 2.9e-05 | 8.58e-05 ± 3.5e-05 | 4.48e-05 ± 1.9e-05 | – |
| G7U C34U A39C U69C | – | < 1e-05 | – | – |
| U56A G60U | < 1e-05 | – | – | – |
| C50G U54A G63A | 0.000158 ± 4.4e-05 | 0.000109 ± 2.9e-05 | 8.83e-05 ± 1.8e-05 | – |
| G7U C58G C61G | – | 0.000789 ± 0.00019 | – | – |
| A6G G32U G35U G51A | – | < 1e-05 | – | – |
| A6G A52C C58G G63A G66C | – | < 1e-05 | < 1e-05 | – |
| C50G G66C | 0.000112 ± 3.9e-05 | – | – | – |
| C58A G60U C61U C71A | < 1e-05 | – | < 1e-05 | – |
| C8A C34A G59U A64G | – | < 1e-05 | < 1e-05 | – |

| Variant | self-cleavage kobs at 160 uM GlcN6P (glucosamine-6-phosphate [1]) [s⁻¹] | self-cleavage kobs at 640 uM GlcN6P (glucosamine-6-phosphate [2]) [s⁻¹] | self-cleavage kobs at 2500 uM GlcN6P (glucosamine-6-phosphate [3]) [s⁻¹] | self-cleavage kobs at 10000 uM GlcN6P (glucosamine-6-phosphate [4]) [s⁻¹] |
| --- | --- | --- | --- | --- |
| A6G C10U A14G C34U U46G U57A | – | < 1e-05 | – | – |
| G62U G66C | < 1e-05 | < 1e-05 | < 1e-05 | < 1e-05 |
| C8A A12G G32A | – | < 1e-05 | – | < 1e-05 |
| G7U G13A A15C A36U G43A C67U | – | < 1e-05 | < 1e-05 | – |
| A53C U54G | 0.000308 ± 0.00011 | 0.000352 ± 0.00012 | 0.000803 ± 0.00021 | – |
| G7U G38U G40U | – | < 1e-05 | – | – |
| G7A G32A U49G | – | < 1e-05 | – | – |
| C50A G63A | < 1e-05 | – | – | < 1e-05 |
| G66U C68U C70U | 7.05e-05 ± 2.3e-05 | – | 0.000104 ± 2.7e-05 | – |
| U57G C68U C71U | 4.43e-05 ± 1.8e-05 | – | 5.05e-05 ± 2.4e-05 | – |
| G51C G59U C71U | < 1e-05 | – | < 1e-05 | – |
| G7U A48U C50A C67G | – | 0.000229 ± 8.3e-05 | – | – |
| C8A G13U C58A U65G C67G | – | < 1e-05 | – | – |
| G7U G37A A39C | – | < 1e-05 | < 1e-05 | – |
| A52C A64C | < 1e-05 | < 1e-05 | – | < 1e-05 |
| G7A G44U C67G | – | < 1e-05 | – | – |
| A6C G43C C71U | – | < 1e-05 | – | – |
| G7U A64U | – | < 1e-05 | – | < 1e-05 |
| A6G G40U C67A | – | < 1e-05 | – | – |

From the supplement of paper PMC7125110
